# According to patent publication US20250277025A1:
# Molecular target: human CLDN18.2 expressed on cells (human)
# Assay: cell-based or functional assay
substance,measurement,value
Human IgG1 isotype antibody,"ADCC (PBMC) on KATOIII CLDN18.2 cells, LDH: max (% cytotoxity) (run A)",0.3%
same,"ADCC (PBMC) on KATOIII CLDN18.2 cells, LDH: max (% cytotoxity) (run B)",-5.51%
same,"ADCC (PBMC) on KATOIII CLDN18.2 cells, LDH: max (% cytotoxity) (run C)",-7.64%
same,"ADCC (PBMC) on NCI-N87 CLDN18.2 cells, LDH: max (% cytotoxity) (run A)",-6.73%
same,"ADCC (PBMC) on NCI-N87 CLDN18.2 cells, LDH: max (% cytotoxity) (run B)",-11.7%
same,"ADCC (PBMC) on NCI-N87 CLDN18.2 cells, LDH: max (% cytotoxity) (run C)",-9.22%
